The conditions of the series: Saccharomyces cerevisiae (strain ATCC 204508 / S288c), Fluorescence, reversible: yes, whole UniProt chain shown.
[1] abbreviates: pH 4.6, Thermal, Acetic acid-NaOH 30 mM.
Setting [2] is: pH 7.5, 5.2 °C, GdnHCl, MOPS-NaOH 30 mM.
The mark [3] stands for this setting: pH 7.5, 10.2 °C, GdnHCl, MOPS-NaOH 30 mM.
Setting [4] is: pH 7.5, 15.2 °C, GdnHCl, MOPS-NaOH 30 mM.
[5] abbreviates: pH 7.5, Thermal, MOPS-NaOH 30 mM.

Results on one protein are retold here after FireProtDB (doi:10.1111/j.1432-1033.1995.tb20713.x).

B1: Adenylate kinase wild type, P07170 (protein)
chain: MSSSESIRMVLIGPPGAGKGTQAPNLQERFHAAHLATGDMLRSQIAKGTQLGLEAKKIMDQGGLVSDDIMVNMIKDELTNNPACKNGFILDGFPRTIPQAEKLDQMLKEQGTPLEKAIELKVDDELLVARITGRLIHPASGRSYHKIFNPPKEDMKDDVTGEALVQRSDDNADALKKRLAAYHAQTEPIVDFYKKTGIWAGVDASQPPATVWADILNKLGKD
Take B1: the unfolding free energy is, setting by setting: (pH 4.6, 25 °C, Thermal, Acetic acid-NaOH 30 mM) 2.15 kcal/mol; under setting [2], 3.97 kcal/mol; under setting [3], 4.9 kcal/mol; under setting [4], 5.47 kcal/mol; (pH 7.5, 25 °C, Thermal, MOPS-NaOH 30 mM) 3.82 kcal/mol. Besides, the melting temperature (Tm) (commonly the temperature at the midpoint of the melting transition) by setting is: under setting [1], 48.6 °C; under setting [5], 47.7 °C. Also, the “unfolding enthalpy (van 't Hoff)” value is, setting by setting: under setting [1], 57.4 kcal/mol; under setting [5], 81.3 kcal/mol. Also, the denaturant m value under setting [2] is 5.28 kcal/mol/M, the denaturant m value under setting [3] is 6.98 kcal/mol/M and the denaturant m value under setting [4] was 7.29 kcal/mol/M. The “denaturant midpoint (higher = more stable)” value came out at 0.76 M under setting [2], 0.7 M under setting [3] and 0.75 M under setting [4].
